{"source": "paper PMC9232537", "molecular_target": "6xHis-N-WASP (UniProt O00401)", "sequence (O00401 whole entry)": "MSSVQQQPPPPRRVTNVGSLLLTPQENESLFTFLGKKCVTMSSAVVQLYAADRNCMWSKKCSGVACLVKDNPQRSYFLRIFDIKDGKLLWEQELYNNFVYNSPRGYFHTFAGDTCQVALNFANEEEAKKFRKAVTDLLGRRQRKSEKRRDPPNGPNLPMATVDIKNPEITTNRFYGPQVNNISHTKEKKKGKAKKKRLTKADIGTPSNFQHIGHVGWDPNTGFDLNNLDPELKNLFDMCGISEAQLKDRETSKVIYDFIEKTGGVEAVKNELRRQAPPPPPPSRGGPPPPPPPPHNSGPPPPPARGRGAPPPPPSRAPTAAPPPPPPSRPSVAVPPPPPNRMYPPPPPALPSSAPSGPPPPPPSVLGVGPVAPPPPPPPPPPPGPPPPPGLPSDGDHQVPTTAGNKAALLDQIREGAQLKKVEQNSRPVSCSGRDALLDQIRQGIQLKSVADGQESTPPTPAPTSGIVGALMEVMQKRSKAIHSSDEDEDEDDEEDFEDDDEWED"}
{"substance": "purified native MirA (natural protein)", "values": [{"measurement": "pyrene actin (1 µM, 10% labeled) polymerization with Arp2/3 complex (50 nM), N-WASP (200 nM) and increasing MirA; MirA concentration for half-maximum activity (time to half-maximum fluorescence)", "value": 60, "unit": "nM"}]}
